Data on three substances can be found in article PMC8822174.

Usually Kd stands for a measure of binding affinity in units of concentration. Low readings indicate a tighter complex, high ones a looser complex.

Experiment [1] has as its target swine fibronectin (swine). The experiment can be described thus: SPR.
Experiment [2] concerns the target swine plasminogen (swine). The experiment can be described thus: SPR. A general note: SPR reads the build-up and loss of mass on a sensor chip optically.

With “Mycoplasma bovis enolase (from UniProt A0A454AQL1 1-454) (enzyme)”, the figures for the Kd in experiment [1] and in experiment [2] were 486 nM and 95.2 nM, respectively.

For “Mycoplasma pneumoniae enolase (from UniProt P75189 1-456) (enzyme)”, the results for the Kd in experiment [1] and in experiment [2] were > 1000 nM and 300 nM, respectively.

In the case of “Mycoplasma hyopneumoniae enolase (enzyme)”, the values for the Kd in experiment [1] and in experiment [2] were 74.1 nM and 62.5 nM, respectively.
